For this assay, the target named is T1, human PD-L1-Fc (R&D Systems) (human, UniProt Q9NZQ7 19-239).
T1 construct: Bought from R&D Systems; Biotinylated in-house for the phage selection; also called huPD-L1-Fc; human PD-L1-Fc antigen; not shown: Fc part of the bought fusion
Description: soluble Affimer ELISA. Background: An ELISA detects its analyte on a solid surface through an enzyme-linked reagent.

T1 sequence (Q9NZQ7 19-239 limits assumed): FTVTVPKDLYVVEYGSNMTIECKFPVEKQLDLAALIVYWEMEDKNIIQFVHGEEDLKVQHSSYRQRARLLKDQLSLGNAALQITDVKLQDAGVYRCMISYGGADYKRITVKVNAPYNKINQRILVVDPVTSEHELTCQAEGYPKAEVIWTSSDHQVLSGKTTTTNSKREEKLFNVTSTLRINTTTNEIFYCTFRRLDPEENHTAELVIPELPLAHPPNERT

B1: Clone 248 (designed binder)
chain: MIPGGLSEAKPATPEIQEIVDKVKPQLEEKTGETYGKLEAVQYKTQVVLQLPPRPHDGTNYYIKVRAGDNKYMHLKVFKSLNWEPAQHPVEDLVLTGYQVDKNKDDELTGF
notes: His-tagged
On to B1, for which the binding result is listed as “binds”.

B2: Clone 234 (designed binder)
chain: MIPGGLSEAKPATPEIQEIVDKVKPQLEEKTGETYGKLEAVQYKTQVVRNSGVWEFEGTNYYIKVRAGDNKYMHLKVFKSLGKYKTNWYFEDLVLTGYQVDKNKDDELTGF
notes: His-tagged
As for B2, the binding result is recorded as “binds”.

B3: Clone 235 (designed binder)
chain: MIPGGLSEAKPATPEIQEIVDKVKPQLEEKTGETYGKLEAVQYKTQVVWNPPSLPISGTNYYIKVRAGDNKYMHLKVFKSLAWDNTAKHGEDLVLTGYQVDKNKDDELTGF
notes: His-tagged
In the case of B3, the binding result is “binds”.

B4: Clone 25 (designed binder)
chain: MIPGGLSEAKPATPEIQEIVDKVKPQLEEKTGETYGKLEAVQYKTQVVVRHPRWFFIGTNYYIKVRAGDNKYMHLKVFKSLKKHGDEVTLEDLVLTGYQVDKNKDDELTGF
notes: His-tagged
B4: the binding result is on record as “binds”.

B5: Clone 238 (designed binder)
chain: MIPGGLSEAKPATPEIQEIVDKVKPQLEEKTGETYGKLEAVQYKTQVVRHKGLWQFEGTNYYIKVRAGDNKYMHLKVFKSLSHQPYRATIEDLVLTGYQVDKNKDDELTGF
notes: His-tagged
On to B5, for which the binding result was “binds”.

B6: Clone 244 (designed binder)
chain: MIPGGLSEAKPATPEIQEIVDKVKPQLEEKTGETYGKLEAVQYKTQVVWDSEALPIDGTNYYIKVRAGDNKYMHLKVFKSLRWWPWDAVGEDLVLTGYQVDKNKDDELTGF
notes: His-tagged
Consider B6, for which the binding result is “binds”.

B7: Clone 237 (designed binder)
chain: MIPGGLSEAKPATPEIQEIVDKVKPQLEEKTGETYGKLEAVQYKTQVVVAGLKWHWEGTNYYIKVRAGDNKYMHLKVFKSLIYASQYDYREDLVLTGYQVDKNKDDELTGF
notes: His-tagged
B7: the binding result is given as “binds”.

B8: Clone 239 (designed binder)
chain: MIPGGLSEAKPATPEIQEIVDKVKPQLEEKTGETYGKLEAVQYKTQVVLTIPPTAFSGTNYYIKVRAGDNKYMHLKVFKSLGWNLHEVALEDLVLTGYQVDKNKDDELTGF
notes: His-tagged
As to B8, the binding result is “binds”.

B9: Clone 241 (designed binder)
chain: MIPGGLSEAKPATPEIQEIVDKVKPQLEEKTGETYGKLEAVQYKTQVVSRLHFPNFQGTNYYIKVRAGDNKYMHLKVFKSLNLEHPTDETEDLVLTGYQVDKNKDDELTGF
notes: His-tagged
Consider B9, for which the binding result was “binds”.

B10: Clone 242 (designed binder)
chain: MIPGGLSEAKPATPEIQEIVDKVKPQLEEKTGETYGKLEAVQYKTQVVVEWSESGYDGTNYYIKVRAGDNKYMHLKVFKSLRLKSNVNIAEDLVLTGYQVDKNKDDELTGF
notes: His-tagged
As to B10, the binding result is “binds”.

B11: Clone 243 (designed binder)
chain: MIPGGLSEAKPATPEIQEIVDKVKPQLEEKTGETYGKLEAVQYKTQVVWKQITLPVDGTNYYIKVRAGDNKYMHLKVFKSLHWDEYEYDEEDLVLTGYQVDKNKDDELTGF
notes: His-tagged
On to B11, for which the binding result was “binds”.

B12: Clone 249 (designed binder)
chain: MIPGGLSEAKPATPEIQEIVDKVKPQLEEKTGETYGKLEAVQYKTQVVIYYPIWGFQGTNYYIKVRAGDNKYMHLKVFKSLRWSKDGATAEDLVLTGYQVDKNKDDELTGF
notes: His-tagged
For B12, the binding result is on record as “binds”.

B13: Clone 245 (designed binder)
chain: MIPGGLSEAKPATPEIQEIVDKVKPQLEEKTGETYGKLEAVQYKTQVVGYLELWKWSGTNYYIKVRAGDNKYMHLKVFKSLYNLHHPHKDEDLVLTGYQVDKNKDDELTGF
notes: His-tagged
B13: the binding result is “binds”.

These data come from patent US20250243277A1 (AVACTA LIFE SCIENCES, published 2025).
